Data on 9 molecules can be found in patent publication US6818749.

B1: HuCC49 CDR variant L-1 (antibody, V domains shown)
VH: QVQLVQSGAEVVKPGASVKISCKASGYTFTDHAIHWVKQNPGQRLEWIGYFSPGNDDFKYNERFKGKATLTADTSASTAYVELSSLRSEDTAVYFCTRSLNMAYWGQGTLVTVSS
VL: DIVMSQSPDSLAVSLGERVTLNCKSSQSVLYSSNSKNYLAWYQQKPGQSPKLLIYWASARESGVPDRFSGSGSGTDFTLTISSVQAEDVAVYYCQQYYSYPLTFGAGTKLELK
B2: HuCC49 variant ^97L1,2 (antibody, V domains shown)
VH: B1 VH
VL: B1 VL with A59T, T103S
B3: HuCC49 CDR variant L-1,2 (antibody, V domains shown)
VH: B1 VH
VL: B1 VL with A59T
B4: HuCC49 CDR variant H-2 (antibody, V domains shown)
VH: QVQLVQSGAEVVKPGASVKISCKASGYTFTDHAIHWVKQNPGQRLEWIGWINAGNGNTKYSQKFQGKATLTADTSASTAYVELSSLRSEDTAVYFCTRSLNMAYWGQGTLVTVSS
VL: B1 VL with V29L, S33G, S35Q
B5: humanized monoclonal antibody HuCC49 (parental HuCC49) (antibody, V domains shown)
VH: B1 VH
VL: B1 VL with V29L, S33G, S35Q
B6: HuCC49 CDR variant L-3 (antibody, V domains shown)
VH: B1 VH
VL: B1 VL with V29L, S33G, S35Q, Y100T, L102Y, T103S
B7: HuCC49 CDR variant H-3 (antibody, V domains shown)
VH: QVQLVQSGAEVVKPGASVKISCKASGYTFTDHAIHWVKQNPGQRLEWIGYFSPGNDDFKYNERFKGKATLTADTSASTAYVELSSLRSEDTAVYFCTRGGYYGSGSGSNYWGQGTLVTVSS
VL: B1 VL with V29L, S33G, S35Q
B8: HuCC49 CDR variant H-1 (antibody, V domains shown)
VH: B1 VH with D31S, H32Y, I34M
VL: B1 VL with V29L, S33G, S35Q
B9: HuCC49 CDR variant L-2 (antibody, V domains shown)
VH: B1 VH
VL: B1 VL with V29L, S33G, S35Q, A59T

Positions count from the first letter of the chain named.

The target in the first test is TAG72 positive bovine submaxillary mucin (BSM) (bovine). The test is described as follows: relative affinity constant from competition RIA on BSM.
B1 yielded a fold less than the Ka of HuCC49 of 2 fold.

In turn, B2 registered a fold less than the Ka of HuCC49 of 2 to 3 fold.

In turn, B3 yielded a fold less than the Ka of HuCC49 of 2 fold.

With B4, the fold less than the Ka of HuCC49 worked out at 300 fold.

The target of another test is mouse anti-idiotypic MAb AI49-1 (γ-subset). Briefly: competition RIA vs ^125I-murine CC49 on adsorbed AI49-1.
On to B4, for which the fold more competitor for 50% inhibition than HuCC49 was in the range of 4 to 15 fold.

A further test has as its target mouse anti-idiotypic MAb AI49-3 (β-subset). The test is described as follows: competition RIA vs ^125I-murine CC49 on adsorbed AI49-3.
The molecule B4 had a fold more competitor for 50% inhibition than HuCC49 of 4 to 15 fold.

The next test concerns the target anti-CC49 variable region (anti-idiotypic) antibodies in the serum of patient two. Briefly: HPLC size exclusion; ^125I-HuCC49 + patient serum, no competitor.
With B5, the percent of complexes came to 32.2%.

Another test concerns the target anti-CC49 variable region (anti-idiotypic) antibodies in the serum of patient one. The description is as above.
For the molecule B5, the percent of complexes was found to be 46.2%.

A further test addresses anti-CC49 variable region (anti-idiotypic) antibodies in the serum of patient six. Described as above.
Consider B5, for which the percent of complexes was determined as 33.5%.

The target of another test is anti-CC49 variable region (anti-idiotypic) antibodies in the serum of patient four. The test is described as above.
On to B5, for which the percent of complexes was determined as 56.8%.

A further test has as its target anti-CC49 variable region (anti-idiotypic) antibodies in the serum of patient three. The description is as above.
On to B5, for which the percent of complexes was determined as 24.5%.

In a further test the target is anti-CC49 variable region (anti-idiotypic) antibodies in the serum of patient five. Described as above.
B5: the percent of complexes stood at 42.9%.

The next test concerns the target anti-CC49 variable region (anti-idiotypic) antibodies in the serum of patient two. The test is described as follows: HPLC competition, serial dilutions of cold competitor vs ^125I-HuCC49 with serum of patient two.
The molecule B5 showed an amount of competitor for 25% competition of 60 ng.

For the next test the target is unchanged. The test is described as follows: HPLC size exclusion; 5 µg cold competitor + ^125I-HuCC49 + patient serum; less complex = more competition. (In general: In gel filtration, larger molecules generally elute earlier.)
As to B1, the percent of complexes was 16.9%.

Regarding B6, the percent of complexes came out at 33.5%.

Consider B3, for which the percent of complexes came to 15.7%.

For the molecule B7, the percent of complexes amounted to 6.7%.

For the molecule B8, the percent of complexes is 5.8%.

Turning to B5, the percent of complexes stood at 1.5%.

With B4, the percent of complexes stood at 29.7%.

Regarding B9, the percent of complexes turned out to be 3%.

The target of a further test is anti-CC49 variable region (anti-idiotypic) antibodies in the serum of patient one. Described as above.
Turning to B1, the percent of complexes was 12.2%.

Turning to B6, the percent of complexes came to 48.2%.

Consider B3, for which the percent of complexes amounted to 24.5%.

Take B7: the percent of complexes was 5.1%.

For B8, the percent of complexes was found to be 3.9%.

B5: the percent of complexes was 0%.

With B4, the percent of complexes came out at 32.5%.

For the molecule B9, the percent of complexes was 3.4%.

The target of a further test is anti-CC49 variable region (anti-idiotypic) antibodies in the serum of patient six. The test is described as above.
With B1, the percent of complexes worked out at 16%.

On to B6, for which the percent of complexes turned out to be 34.8%.

For the molecule B3, the percent of complexes was found to be 24.6%.

With B7, the percent of complexes turned out to be 7.3%.

As to B8, the percent of complexes is 10.2%.

For the molecule B5, the percent of complexes came out at 0%.

With B4, the percent of complexes amounted to 32.7%.

As to B9, the percent of complexes is 2.7%.

The next test has as its target anti-CC49 variable region (anti-idiotypic) antibodies in the serum of patient four. The test is described as above.
As to B1, the percent of complexes stood at 10.1%.

As to B6, the percent of complexes worked out at 37.6%.

Consider B3, for which the percent of complexes is 19.4%.

For the molecule B7, the percent of complexes was determined as 8.2%.

With B8, the percent of complexes came out at 7%.

Regarding B5, the percent of complexes worked out at 0.5%.

With B4, the percent of complexes turned out to be 24.7%.

Regarding B9, the percent of complexes turned out to be 4.4%.

A further test has as its target anti-CC49 variable region (anti-idiotypic) antibodies in the serum of patient three. The test is described as above.
Consider B1, for which the percent of complexes amounted to 9.8%.

Consider B6, for which the percent of complexes was 22.4%.

Consider B3, for which the percent of complexes came out at 12.6%.

For B7, the percent of complexes turned out to be 3.7%.

Turning to B8, the percent of complexes was 3.3%.

Regarding B5, the percent of complexes was 2.6%.

B4: the percent of complexes was 12.7%.

B9: the percent of complexes was 2.7%.

Another test has as its target anti-CC49 variable region (anti-idiotypic) antibodies in the serum of patient five. The description is as above.
With B1, the percent of complexes came out at 14.3%.

Take B6: the percent of complexes was found to be 46.7%.

As to B3, the percent of complexes amounted to 20.2%.

For B7, the percent of complexes is 4.6%.

B8: the percent of complexes was 3.5%.

In the case of B5, the percent of complexes came out at 3%.

With B4, the percent of complexes came out at 36.6%.

With B9, the percent of complexes is 2.4%.

A further test has as its target anti-idiotypic antibodies to MAb CC49 in the serum of one patient (not named, Example V). The test is described as follows: HPLC size-exclusion competition: cold competitor vs ^125I-HuCC49 for complex formation with patient serum.
For B9, the fold better competition than parental HuCC49 came out at 2 fold.
